These results are taken from patent US20170174777A1 (PROTHENA BIOSCIENCE, published 2017).

Assay [1] addresses T1, wild-type human alpha-synuclein (human, UniProt P37840 1-140). Put plainly: ELISA on alpha-synuclein, OD against ng/mL of antibody.
Assay [2] has as its target T1, wild-type human alpha-synuclein. Kind of assay: SPR (Biacore), antibody captured on anti-human IgG chip, alpha-synuclein flowed over, 1:1 model global fit. (In general: In SPR one partner is held on a chip, and binding of the other changes the refractive index at the surface.)
Method: An anti-human IgG CMS Biacore chip was prepared following the protocol supplied by GE Healthcare.
Data were collected and double reference subtracted to account for drift and a small amount of nonspecific binding. The data were analyzed using Biacore evaluation software using a 1:1 model and a global fit.

Where a chain is given by its changes, count along the chain named.

B1: humanized 5C1 antibody version H1L1 (antibody, V domains shown)
VH: QVQLVQSGAELKKPGSSVKVSCKASGYTFTNYWMNWVRQAPGQGLEWIGATNPNNGYTDYNQRFKDRATLTADKSTNTAYMELSSLRSEDTAVYYCARGGHLAYWGQGTLVTVSS
VL: DVVMTQSPLSLSVSPGEPASISCRSSQSLFHSKGNTYLHWYLQKPGQSPKLLINRVSNRFSGVPDRFSGSGSGTDFTLKISRVEAEDVGVYFCSQSAHVPWTFGGGTKVEIK
notes: Only variable regions are tied to this version
For the molecule B1, in assay [1], the binding result was “no binding (tested: 1000 ng/mL)”.

B2: humanized 5C1 antibody version H4L4 (antibody, V domains shown)
VH: B1 VH with R98S
VL: B1 VL with V2I, K50Q, N54Y, F92Y
notes: Only variable regions are tied to this version; also called h5C1_H4L4
In turn, B2 returned a Kd in assay [2] of 601 nM.

B3: humanized 5C1 antibody version H5L4 (antibody, V domains shown)
VH: B1 VH with A68V, L70I, R98S
VL: B1 VL with V2I, K50Q, N54Y, F92Y
notes: Only variable regions are tied to this version; also called h5C1_H5L4
As for B3, in assay [2], the affinity, expressed as Kd, was 1060 nM. Against the preceding molecule, the Kd is about 1.8-fold higher.

B4: humanized 5C1 antibody version H3L4 (antibody, V domains shown)
VH: B1 VH with Y95F, R98S
VL: B1 VL with V2I, K50Q, N54Y, F92Y
notes: Only variable regions are tied to this version; also called h5C1_H3L4
For B4, binding in assay [2] was put at a Kd of 1240 nM.

Broadly, the Kd is the concentration at which binding is half-saturated.
